The data set is described as follows: soluble on expression in E. coli; label from the status in PepcDB or PDB records.
Turning to “MFRSSFCKNLENATSHLRLEPDWPSILLICDEINQKDVTPKNAFAAIKKKMNSPNPHSSCYSLLVLESIVKNCGAPVHEEVFTKENCEMFSSFLESTPHENVRQKMLELVQTWAYAFRSSDKYQAIKDTMTILKAKGHTFPELREADAMFTADTAPNWADGRVCHRCRVEFTFTNRKHHCRNCGQVFCGQCTAKQCPLPKYGIEKEVRVCDGCFAALQRG”, the “soluble on expression in E. coli” value is on record as “soluble”. With “GGSGERKISRIHLVSEPSITHFLQVSWEKTLESGFVITLTDGHSAWTGTVSESEISQEADDMAMEKGKYVGELRKALLSGAGPADVYTFNFSKESCYFFFEKNLKDVSFRLGSFNLEKVENPAEVIRELICYCLDTTAKNEKSIDDLEEKVAHAKEENLNMHQMLDQTLLELNNM” the entry was “soluble”.

On to “MSLTLPSEKPATDVAAQCFLNALIRETTDWKLTEYPPDELIIPLDEQKSLHFRVAYFSPTQHHRFAFPARLVTASGSYPVDFTTLSRLIIDKLRHQLFLPVPLCETFHQRVLESHAHTQQAIDARHDWTALREKALNFGEAEQALLTGHAFHPAPKSHEPFNRREAERYLPDMAPHFPLRWFSVDKTQIAGESLHLNLQQRLTRFAAENAPQLLNELSDNQWLFPLHPWQGEYLLQQGWCQALVAKGLIKDLGEAGTSWLPTTSSRSLYCATSRDMIKFSLSVRLTNSIRTLSVKEVKRGMRLARLAQTDGWQMLQVRFPTFRVMQEDGWAGLLDLNGNIMQESLFALRENLLVDQPKSQTNVLVSLTQAAPDGGDSLLVSAVKRLSDRLGITVQQAAHAWVDAYCQQVLKPLFTAEADYGLVLLAHQQNILVQMLGDLPVGFIYRDCQGSAFMPHATDWLDSIGEAQAENIFTHEQLLRYFPYYLLVNSTFAVTAALGAAGLDSESNLMARVRASLAEVRDQVTHKTCLNYVLESPYWNVKGNFFCYLNDHNENTIVDPSVIYFDFANPLQAQEGHHHHHH”, for which the “soluble on expression in E. coli” value is “soluble”. The entry for “PKKPPMNGYQKFSQELLSNGELNHLPLKERMVEIGSRWQRISQSQKEHYKKLAEEQQRQYKVHLDLWVKSLSPQDRAAYKEYISNKRK” is “soluble”; for “TLDEVKSLWDPRGISGTETASPQSDTPQAVSGASQPRWLRLSNGKQVDLRDWKVVLFMQGHCPYCHKFDPVLKQLAGQYGFSVFSYTIDGQGDDAFPEALPAPPDVMQTFFPNIPVATPTTFLVNVNTLAAYPILQGATDAQGFMARVDTVFQ” it is “not soluble”; for SAQSQRAPDRVLCHSGQQQGLPRAAGGSVPHPRCH it is “soluble”.

For “MSLEATIRLGSSLPLTGHARYLGVETLRGALAYINHVNDSGGVHGRRIELDARDDGYDPPRCLANTQEQLISGEVFALTCYVGTPTTMRILPLVDEARIPLVGAFTGANGLRDPFSRYVFNVRASYYQETDAAVRHLVHDLGLTRIAVFYQYDAYGFDGLTGTELALRELGLAPVARGSYARGTDNIEDGLHRIIASDAEAVLMVGTSEPTARFIRMAEEAGFDAVYHALSFTGAEELARLLGHTDAKVLLSQVVPPPDAPEAPAILGCTTEYVNLLKRYYPDATPSAIGLEGYINARILVEGLRRAGPDLTREGFVRALESLRDYPLGGRTVVSFSPESRQGMGSVYFTRLVGGRFELMREAGAPPSAARPASNKGEGHHHHHH”, the “soluble on expression in E. coli” value is reported as “soluble”.

For the sequence “MSLDIRLLIMPLPDFALLPFGAFLDKLRFSADDEDYSQQRYCSWMVAGLSLEPVPSSSGAVLQVEAIADQLDLDLFDYLVVFGGRSAMATAALAPRYQALLRQAAKAGVKLVGVDNGAFLLAACGLLQGHKVVVHWRHEAEFRAAFPQLQLLREQLYCIDGNRITCAGGTAAIDLAVALLSRACGRTRALKGLADMLVDETREGHHHHHH”, the “soluble on expression in E. coli” value is “soluble”. “NLKVEFYNSNPSDTTNSINPQFKVTNTGSSAIDLSKLTLRYYYTVDGQKDQTFWCDHAAIIGSNGSYNGITSNVKGTFVKMSSSTNNADTYLEISFTGGTLEPGAHVQIQGRFAKNDWSNYTQSNDYSFKSASQFVEWDQVTAYLNGVLVWGKEP”: the “soluble on expression in E. coli” value was “soluble”.

Take “MKEERRRLLAKVAYLHYVQGKSQTLISKEMNIYRTTVCRMLAKAKEEGIVRIEIADYDADLFALEEYVRQQYGLEKLDLVPNQVEDTPMDTLTNVAKTAAEVFRHVVKDGDKIGLSWGATLSCLMDELNPKAMKDVFIYPLAGGPSHINAKYHVNTLVYRLARIFHGNSAFMNAMVIQEDKHLAKGILQSKYFNDILTSWDQLDLALVGIGGEPNSLEQSQWRDLLTSSDHDQLKYEKAVGEVCCRFFDQAGQPVYTGLQDRTIGISLEQLRRVPKTMAVATGKHKAKAILAALKAGFINYLVTDKETMLAVLALDEDIDLNNVLL”: the “soluble on expression in E. coli” value is listed as “not soluble”.

Consider “MNGYIINIRYQQMGRVIYMFFFAIFGIQDKNKHIGNCNNIVCPSCGRLSMYEVYKYYKYFHIFFLPIFKWDVRYIVKTSCCGCLYELDPLVGKEFEKNPSTEIREENLQRIDRYSPFKYCSNCRTEVPVEYSYCPYCGERLLEHHHHHH”, for which the “soluble on expression in E. coli” value is given as “not soluble”. With “MGSDKIHHHHHHMTVQQFIKKLVRLVELERNAEINAMLDEMKRLSGEEREKKGRAVLGLTGKFIGEELGYFLVRFGRRKKIDTEIGVGDLVLISKGNPLKSDYTGTVVEKGERFITVAVDRLPSWKLKNVRIDLFASDITFRRQIENLMTLSSEGKKALEFLLGKRKPEESFEEEFTPFDEGLNESQREAVSLALGSSDFFLIHGPFGTGKTRTLVEYIRQEVARGKKILVTAESNLAVDNLVERLWGKVSLVRIGHPSRVSSHLKESTLAHQIETSSEYEKVKKMKEELAKLIKKRDSFTKPSPQWRRGLSDKKILEYAEKNWSARGVSKEKIKEMAEWIKLNSQIQDIRDLIERKEEIIASRIVREAQVVLSTNSSAALEILSGIVFDVVVVDEASQATIPSILIPISKGKKFVLAGDHKQLPPTILSEDAKDLSRTLFEELITRYPEKSSLLDTQYRMNELLMEFPSEEFYDGKLKAAEKVRNITLFDLGVEIPNFGKFWDVVLSPKNVLVFIDTKNRSDRFERQRKDSPSRENPLEAQIVKEVVEKLLSMGVKEDWIGIITPYDDQVNLIRELIEAKVEVHSVDGFQGREKEVIIISFVRSNKNGEIGFLEDLRRLNVSLTRAKRKLIATGDSSTLSVHPTYRRFVEFVKKKGTYVIF” the entry was “not soluble”; with “MSLMIVYKGEKMQFIRVNTLKINPEVLKKRLENKGVVLEKTFLDYAFEVKKSPFSIGSTPEYLFGYYMPQSISSMIPPIVLNPREDDFILDMCAAPGGKTTHLAQLMKNKGTIVAVEISKTRTKALKSNINRMGVLNTIIINADMRKYKDYLLKNEIFFDKILLDAPCSGNIIKDKNRNVSEEDIKYCSLRQKELIDIGIDLLKKDGELVYSTCSMEVEENEEVIKYILQKRNDVELIIIKANEFKGINIKEGYIKGTLRVFPPNEPFFIAKLREGGSHHHHHH”, “soluble”. With “MCGRFAYIASYDKLKYQFHLANAIEVPPRFNISPGADVLCLVETDGHKIQCVLLRWGFIPSWATDRKKLGNLINARAETVFEKPTFRQSIKSKRCLIPMSGFYEWRQEDGVKQPYFFQKKNHDLLAVAAIRDTWQQSDEVIHSCCLITTDANAFMQPVHNRMPVILGEEAQAIWLNNTQYDKAQLMALMKPYPYEDLEGYRVTTLVNKANFDHPLAMEPLSELEHHHHHH” the entry was “soluble”; with “KINDFSIKHGLTEKFVVSFAGTLGFSQDMEVIIRAANELKEYKDIVFIIVGNGVRLEESKKLAESLNLQNIRFIPSVPREIYPLVLHSSDVSLATLTKDVKTPVVPSKILSIMSAGIPVIAVMNLEGDAPKLVEKANAGFAIPAGDYKSLAEKILLLYKNPELRESLGRNGRRY”, “not soluble”; with “MGSDKIHHHHHHMKTLKGPAIFLAQFIGDTPPFDKLETMAAWVSSLGYAGVQMPTGGADSFFDLALAAESQTYCDDIAGLLAEYGLEITELSTHLQGQLVAVHPAYDELFDGFAPPELRGKPKERQAWAVEQVKAAAVASRRLGLKAHATFSGSLAWPYLYPWPQRPAGLIEEAFAELGRRWKPILDVFDENGVDAAYEIHPGEDLHDGATFERFLDEVGGHPRANILYDPSHFVLQQLDYLAYIDRYHERIKAFHVKDAEFRPSARSGVYGGYQGWVDRPGRFRSLGDGQVDFKAIFSKLAQYDYDGWAVLEWECALKHPEQGAAEGAPFIRDHIIRVTDKAFDDFASAGSEAGRNRRLLGL”, “not soluble”.
